± gives the uncertainty stated by the source.
Experiment: self-splicing fitness, log relative to wild type (ln ratio); higher = more splicing; Tetrahymena group I intron in knt gene, E. coli kanamycin selection, DiMSum; sequences stand for … in CUCUCU…GGAGGGAAAAGUUAUCAGGCAUGCACCUGGUAGCUAGUCUUUAAACCAAUAGAUUGCAUCGGUUUAAAAGGCAAGACCGUCAAAUUGCGGGAAAGGGGUCAACAGCCGUUCAGUACCAAGUCUCAGGGGAAACUUUGAGAUGGCCUUGCAAAGGGUAUGGUAAUAAGCUGACGGACAUGGUCCUAACCACGCAGCCAAGUCCUAAGUCAACAGAUCUUCUGUUGAUAUGGAUGCAGUUCACAGACUAAAUGUCGGUCGGGGAAGAUGUAUUCUUCUCAUAAGAUAUAGUCGGACCUCUCCUUAAUGGGAGCUAGCGGAUGAAGUGAUGCAACACUGGAGCCGCUGGGAACUAAUUUGUAUGCGAAAGUAUAUUGAUUAGUUUUGGAGUACUCGUGGUCG
Method in brief: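 The eight P1ex-region nucleotides of an intron in the knt kanamycin-resistance gene on pET-22b(+) were all randomised and the library put into E. coli BL21(DE3). Six replicate transformations were grown overnight at 37°C or 30°C on LB agar with or without 25 μg/mL kanamycin, together with 100 μg/mL carbenicillin, 50 μM IPTG and 0.2% rhamnose. Colonies were pooled and amplicon-sequenced on an Illumina HiSeq 2500. Fitness from DiMSum is the error-weighted combination of wild-type-normalised replicate fold changes, kanamycin over none.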

Sequence | self-splicing fitness (ln) (30 °C) | self-splicing fitness (ln) (37 °C)
CUUCAGCAAUAUUACGACUC | -2.49 ± 0.21 | -1.46 ± 0.23
AAAGAGCAAUAUUACGAAAA | – | -0.77 ± 0.4
GAGCAGCAAUAUUACGUACC | -0.46 ± 0.12 | -0.225 ± 0.14
ACCGAGCAAUAUUACGAACG | -2.36 ± 0.2 | -0.527 ± 0.22
GAGUAGCAAUAUUACGUCUA | -0.203 ± 0.099 | -0.00603 ± 0.14
AGAUAGCAAUAUUACGGGAG | -2.43 ± 0.26 | -1.95 ± 0.23
CAGCAGCAAUAUUACGGGCC | -3.41 ± 0.3 | -2.78 ± 0.24
ACGUAGCAAUAUUACGGGUU | -3.54 ± 0.2 | -2.07 ± 0.21
AAUUAGCAAUAUUACGGCUG | -0.324 ± 0.082 | 0.339 ± 0.12
UGACAGCAAUAUUACGGGGU | -4.41 ± 0.31 | -2.38 ± 0.23
AACUAGCAAUAUUACGGCAC | -0.766 ± 0.079 | -0.192 ± 0.11
UGCGAGCAAUAUUACGUUGC | – | -1.17 ± 0.33
AGGGAGCAAUAUUACGAGAU | -2.75 ± 0.29 | -3.06 ± 0.48
CCUUAGCAAUAUUACGAUGC | -4.15 ± 0.27 | -2.62 ± 0.17
AAACAGCAAUAUUACGACUA | -0.953 ± 0.074 | 0.0444 ± 0.077
UGGCAGCAAUAUUACGUUUG | -0.921 ± 0.06 | -0.496 ± 0.089
GAGGAGCAAUAUUACGGGCC | -2.4 ± 0.4 | –
GCCGAGCAAUAUUACGGUAU | -1.89 ± 0.13 | -0.878 ± 0.12
AUAUAGCAAUAUUACGAUAC | -1.66 ± 0.35 | -0.756 ± 0.26
AGUAAGCAAUAUUACGCAAA | -2.45 ± 0.35 | -1.46 ± 0.25
AUGUAGCAAUAUUACGCAAU | -1.49 ± 0.13 | -1.01 ± 0.23
ACUGAGCAAUAUUACGGCAU | -0.643 ± 0.071 | -0.708 ± 0.1

Sequence | self-splicing fitness (ln) (30 °C) | self-splicing fitness (ln) (37 °C)
AAAAAGCAAUAUUACGUUGC | -3.56 ± 0.13 | -2.44 ± 0.14
UGGUAGCAAUAUUACGGCUU | 0.166 ± 0.18 | -0.0657 ± 0.2
CCUCAGCAAUAUUACGCGGC | -3.25 ± 0.2 | -2.5 ± 0.2
GUUCAGCAAUAUUACGUCGC | -0.991 ± 0.1 | -0.347 ± 0.12
AUGUAGCAAUAUUACGCCUU | -0.114 ± 0.1 | -0.413 ± 0.13
UUGUAGCAAUAUUACGGCAG | -0.0514 ± 0.14 | 0.374 ± 0.18
AUAGAGCAAUAUUACGCGGC | -3.33 ± 0.35 | -1.78 ± 0.25
AAAUAGCAAUAUUACGUGAC | -1.53 ± 0.2 | –
AGCCAGCAAUAUUACGGUCU | -3.08 ± 0.18 | -2.51 ± 0.18
UGUGAGCAAUAUUACGGUAG | -2.45 ± 0.18 | -1.79 ± 0.21
CUGGAGCAAUAUUACGUCCC | – | -1.4 ± 0.46
GAUCAGCAAUAUUACGCCCU | -0.299 ± 0.069 | 0.418 ± 0.084
UGGGAGCAAUAUUACGAUCG | -1.33 ± 0.13 | -0.561 ± 0.15
CUCCAGCAAUAUUACGCUCU | -3.59 ± 0.31 | -3.04 ± 0.34
AUAAAGCAAUAUUACGCCUU | -0.274 ± 0.094 | 0.0912 ± 0.12
CCCCAGCAAUAUUACGUCAC | -4.02 ± 0.23 | -2.93 ± 0.26
CGCGAGCAAUAUUACGCGUU | -3.07 ± 0.25 | -2.74 ± 0.34
CAUCAGCAAUAUUACGGACG | -0.594 ± 0.053 | -0.172 ± 0.08
GUGUAGCAAUAUUACGAGUC | -1.74 ± 0.36 | -1.03 ± 0.3
CCUUAGCAAUAUUACGGAUA | -2.98 ± 0.29 | -1.92 ± 0.37
GGACAGCAAUAUUACGGUUC | -3.64 ± 0.15 | -1.82 ± 0.14
